3 substances from paper PMC7431520 can be followed below.

pKd: −log10 of the molar value.

For test [1], the target named is recombinant LAL2 (rLAL2) protein (Lampetra japonica). Nature of the test: SPR; rLAL2 coupled to a CM5 chip (NHS/EDC, buffer pH 4.0, blocked with ethanolamine); LIP as analyte at different concentrations in HBS-EP; Biacore T200; affinity kinetics fitting. For orientation: Surface plasmon resonance follows binding to a sensor surface in real time, without labels.
The target in test [2] is natural LAL2 protein (Lampetra japonica). Nature of the test: SDS-PAGE and western blot band identified by LC-MS/MS; lamprey serum on 12% SDS-PAGE, blot with rabbit anti-LAL2 antibody; band around 40 kDa analysed by LC-MS/MS of tryptic peptides.
For test [3], the target named is lamprey immune protein (LIP) (Lampetra japonica). As to the kind of experiment: SPR; LIP coupled to a CM5 chip (NHS/EDC, buffer pH 4.0, blocked with ethanolamine); analyte (rLAL2 or TRX) at different concentrations in HBS-EP; Biacore T200; affinity kinetics fitting.

Broadly, the pKd is the negative decadic logarithm of the Kd, by convention in mol/L. For the substance “lamprey immune protein (LIP) (natural protein)”, the pKd in test [1] was 7.68. For orientation: stoichiometry N means a count of units in the complex or per binding partner. As to natural LAL2 protein (natural protein), in test [2], the stoichiometry N amounted to 2. On to “recombinant LAL2 (rLAL2) protein (natural protein)”, for which, in test [3], the pKd was 7.25.
